Numbered stars: 1 amine (or outer) side, 2 acyl side, 3 side chain; on linkers, the order of the positions; unused ones are H or OH. Bridge positions count the residues as written; N and C are the ends. Side chains are listed from the residue outwards. Ends that are not written are not given here. * marks the point of attachment. C20 diacid = O=C(O)CCCCCCCCCCCCCCCCCCC(=O)*; γGlu = O=C(O)[C@H](CCC(=O)[*:2])N[*:1]
T1: human calcitonin receptor (human, UniProt P30988 25-474)
T1 sequence (looked up): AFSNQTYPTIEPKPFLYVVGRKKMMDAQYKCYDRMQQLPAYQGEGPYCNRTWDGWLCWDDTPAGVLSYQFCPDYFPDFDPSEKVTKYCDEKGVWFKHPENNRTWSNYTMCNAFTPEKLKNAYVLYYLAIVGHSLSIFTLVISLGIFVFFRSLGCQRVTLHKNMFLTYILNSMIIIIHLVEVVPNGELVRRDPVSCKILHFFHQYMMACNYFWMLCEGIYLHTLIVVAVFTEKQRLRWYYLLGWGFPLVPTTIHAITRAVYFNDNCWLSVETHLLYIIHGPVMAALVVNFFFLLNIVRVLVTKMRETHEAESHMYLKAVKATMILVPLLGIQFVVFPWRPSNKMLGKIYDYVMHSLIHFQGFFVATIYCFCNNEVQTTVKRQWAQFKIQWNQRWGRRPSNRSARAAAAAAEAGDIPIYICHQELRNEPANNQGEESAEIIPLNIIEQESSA

T2: rat calcitonin receptor (rat, UniProt P32214 25-516)
T2 construct: whole, on cells; Used as membranes prepared from the transfected cells; also called rCTR; rCT
T2 sequence (looked up): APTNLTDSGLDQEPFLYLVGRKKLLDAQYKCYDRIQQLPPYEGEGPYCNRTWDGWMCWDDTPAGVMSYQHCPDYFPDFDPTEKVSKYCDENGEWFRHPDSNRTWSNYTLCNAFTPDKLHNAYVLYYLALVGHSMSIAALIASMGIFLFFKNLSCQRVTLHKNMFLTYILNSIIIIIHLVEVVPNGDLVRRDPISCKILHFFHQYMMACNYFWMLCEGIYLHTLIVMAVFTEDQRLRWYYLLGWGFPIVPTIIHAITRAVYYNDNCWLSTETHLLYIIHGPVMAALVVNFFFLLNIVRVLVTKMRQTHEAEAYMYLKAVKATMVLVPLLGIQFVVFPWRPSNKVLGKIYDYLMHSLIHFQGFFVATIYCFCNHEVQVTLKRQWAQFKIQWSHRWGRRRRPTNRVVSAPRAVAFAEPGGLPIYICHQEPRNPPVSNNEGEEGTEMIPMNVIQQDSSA

T3: human calcitonin receptor (human, UniProt P30988 25-474)
T3 construct: whole, on cells; Used as membranes prepared from the transfected cells; also called hCTR; hCT
T3 sequence (looked up): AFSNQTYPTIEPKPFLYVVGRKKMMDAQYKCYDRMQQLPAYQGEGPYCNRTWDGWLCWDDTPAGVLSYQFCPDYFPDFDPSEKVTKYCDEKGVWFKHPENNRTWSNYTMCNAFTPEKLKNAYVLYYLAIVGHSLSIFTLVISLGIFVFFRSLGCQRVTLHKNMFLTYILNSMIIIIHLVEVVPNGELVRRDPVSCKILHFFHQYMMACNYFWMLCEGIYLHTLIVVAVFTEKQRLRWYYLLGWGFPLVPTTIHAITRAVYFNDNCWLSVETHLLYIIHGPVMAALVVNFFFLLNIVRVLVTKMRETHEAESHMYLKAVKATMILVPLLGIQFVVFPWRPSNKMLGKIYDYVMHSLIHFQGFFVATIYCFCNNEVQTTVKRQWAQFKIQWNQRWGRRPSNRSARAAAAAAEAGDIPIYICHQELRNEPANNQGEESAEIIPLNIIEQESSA

T4: rat amylin receptor (rat calcitonin receptor with rat RAMP 3) (rat, UniProt P32214 25-516; Q9JJ73 23-147)
T4 construct: whole, on cells; Used as membranes prepared from the transfected cells; also called rAmylin-R; rAmylin
T4 sequence (looked up) 1: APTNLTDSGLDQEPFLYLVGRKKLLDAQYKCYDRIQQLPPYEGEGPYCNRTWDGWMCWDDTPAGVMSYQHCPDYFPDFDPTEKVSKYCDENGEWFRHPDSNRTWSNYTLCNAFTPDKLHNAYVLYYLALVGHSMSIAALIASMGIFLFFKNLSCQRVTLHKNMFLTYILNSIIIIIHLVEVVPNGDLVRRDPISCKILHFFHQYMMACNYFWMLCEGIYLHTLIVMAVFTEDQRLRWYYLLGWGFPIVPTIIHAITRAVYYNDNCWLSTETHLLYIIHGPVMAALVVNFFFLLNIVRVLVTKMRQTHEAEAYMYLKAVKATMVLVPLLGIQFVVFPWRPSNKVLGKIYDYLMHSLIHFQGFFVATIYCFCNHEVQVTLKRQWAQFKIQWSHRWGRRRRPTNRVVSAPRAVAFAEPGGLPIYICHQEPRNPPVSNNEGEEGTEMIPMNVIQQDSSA
T4 sequence (looked up) 2: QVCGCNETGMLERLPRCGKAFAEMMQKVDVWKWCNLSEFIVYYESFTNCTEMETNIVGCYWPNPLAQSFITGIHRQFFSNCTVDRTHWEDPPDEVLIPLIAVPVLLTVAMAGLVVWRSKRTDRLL


How the values were obtained:
[1] = target: T1, human calcitonin receptor; assay: cell-based or functional assay
rat calcitonin receptor [2] = target: T2, rat calcitonin receptor; assay: SPA competition with 125I-calcitonin, membranes with rat calcitonin receptor (Assay VIII)
rat calcitonin receptor [3] = target: T2, rat calcitonin receptor; assay: ratio of binding IC50 at rat calcitonin receptor to IC50 at rat amylin receptor (reference)
[4] = target: T3, human calcitonin receptor; assay: ratio of binding IC50 at human calcitonin receptor to IC50 at human amylin receptor (reference)
In short: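 IC₅₀ values were derived by one-site competition analysis of SPA counts. Cell membranes (35 ng/μL) with SPA beads were incubated with test compounds for 120 min at 25° C in Hepes buffer, pH 7.4, containing CaCl2, MgCl₂, OA and Tween20.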

[5] = target: T4, rat amylin receptor (rat calcitonin …); assay: SPA competition with 125I-rat amylin, membranes with rat calcitonin receptor + rat RAMP3 (Assay VI)

Binder	hCTR funct. EC50 (pM) [1]	IC50 (rat calcitonin receptor [2])	Ratio rCT/rAmylin binding (rat calcitonin receptor [3])	Ratio hCT/hAmylin binding [4]	IC50 [5]
K([γGlu-γGlu-C20 diacid])CNTATCATQRLANFLRHSSPNFGAIPSSTNVGHNTY-NH2 (disulfide 2-7; N-terminus assumed; SMILES CC[C@H](C)[C@H](NC(=O)[C@H](C)NC(=O)CNC(=O)[C@H](Cc1ccccc1)NC(=O)[C@H](CC(N)=O)NC(=O)[C@@H]1CCCN1C(=O)[C@H](CO)NC(=O)[C@H](CO)NC(=O)[C@H](Cc1c[nH]cn1)NC(=O)[C@H](CCCNC(=N)N)NC(=O)[C@H](CC(C)C)NC(=O)[C@H](Cc1ccccc1)NC(=O)[C@H](CC(N)=O)NC(=O)[C@H](C)NC(=O)[C@H](CC(C)C)NC(=O)[C@H](CCCNC(=N)N)NC(=O)[C@H](CCC(N)=O)NC(=O)[C@@H](NC(=O)[C@H](C)NC(=O)[C@@H]1CSSC[C@H](NC(=O)[C@@H](N)CCCCNC(=O)CC[C@H](NC(=O)CC[C@H](NC(=O)CCCCCCCCCCCCCCCCCCC(=O)O)C(=O)O)C(=O)O)C(=O)N[C@@H](CC(N)=O)C(=O)N[C@@H]([C@@H](C)O)C(=O)N[C@@H](C)C(=O)N[C@@H]([C@@H](C)O)C(=O)N1)[C@@H](C)O)C(=O)N1CCC[C@H]1C(=O)N[C@@H](CO)C(=O)N[C@@H](CO)C(=O)N[C@H](C(=O)N[C@@H](CC(N)=O)C(=O)N[C@H](C(=O)NCC(=O)N[C@@H](Cc1c[nH]cn1)C(=O)N[C@@H](CC(N)=O)C(=O)N[C@H](C(=O)N[C@@H](Cc1ccc(O)cc1)C(N)=O)[C@@H](C)O)C(C)C)[C@@H](C)O, Synthetic acylated analogue of human amylin; also called compound 86)	19200 pM	–	–	–	–
{C20 diacid-γGlu}-GRCNTATCATQRLAAFLRHSSPNFGAIPSSTNVGHNTY-NH2 (disulfide 3-8; SMILES CC[C@H](C)[C@H](NC(=O)[C@H](C)NC(=O)CNC(=O)[C@H](Cc1ccccc1)NC(=O)[C@H](CC(N)=O)NC(=O)[C@@H]1CCCN1C(=O)[C@H](CO)NC(=O)[C@H](CO)NC(=O)[C@H](Cc1c[nH]cn1)NC(=O)[C@H](CCCNC(=N)N)NC(=O)[C@H](CC(C)C)NC(=O)[C@H](Cc1ccccc1)NC(=O)[C@H](C)NC(=O)[C@H](C)NC(=O)[C@H](CC(C)C)NC(=O)[C@H](CCCNC(=N)N)NC(=O)[C@H](CCC(N)=O)NC(=O)[C@@H](NC(=O)[C@H](C)NC(=O)[C@@H]1CSSC[C@H](NC(=O)[C@H](CCCNC(=N)N)NC(=O)CNC(=O)CC[C@H](NC(=O)CCCCCCCCCCCCCCCCCCC(=O)O)C(=O)O)C(=O)N[C@@H](CC(N)=O)C(=O)N[C@@H]([C@@H](C)O)C(=O)N[C@@H](C)C(=O)N[C@@H]([C@@H](C)O)C(=O)N1)[C@@H](C)O)C(=O)N1CCC[C@H]1C(=O)N[C@@H](CO)C(=O)N[C@@H](CO)C(=O)N[C@H](C(=O)N[C@@H](CC(N)=O)C(=O)N[C@H](C(=O)NCC(=O)N[C@@H](Cc1c[nH]cn1)C(=O)N[C@@H](CC(N)=O)C(=O)N[C@H](C(=O)N[C@@H](Cc1ccc(O)cc1)C(N)=O)[C@@H](C)O)C(C)C)[C@@H](C)O, Analogue of human amylin extended by Gly at the N-terminus; disulfide and C-terminal amide as told for h-amylin)	–	492 nM	60.9	68.6	8.07 nM
{C20 diacid-γGlu}-GRCNTATCATQRLAHFLRHSSPNFGAIPSSTNVGSNTY-NH2 (disulfide 3-8; SMILES CC[C@H](C)[C@H](NC(=O)[C@H](C)NC(=O)CNC(=O)[C@H](Cc1ccccc1)NC(=O)[C@H](CC(N)=O)NC(=O)[C@@H]1CCCN1C(=O)[C@H](CO)NC(=O)[C@H](CO)NC(=O)[C@H](Cc1c[nH]cn1)NC(=O)[C@H](CCCNC(=N)N)NC(=O)[C@H](CC(C)C)NC(=O)[C@H](Cc1ccccc1)NC(=O)[C@H](Cc1c[nH]cn1)NC(=O)[C@H](C)NC(=O)[C@H](CC(C)C)NC(=O)[C@H](CCCNC(=N)N)NC(=O)[C@H](CCC(N)=O)NC(=O)[C@@H](NC(=O)[C@H](C)NC(=O)[C@@H]1CSSC[C@H](NC(=O)[C@H](CCCNC(=N)N)NC(=O)CNC(=O)CC[C@H](NC(=O)CCCCCCCCCCCCCCCCCCC(=O)O)C(=O)O)C(=O)N[C@@H](CC(N)=O)C(=O)N[C@@H]([C@@H](C)O)C(=O)N[C@@H](C)C(=O)N[C@@H]([C@@H](C)O)C(=O)N1)[C@@H](C)O)C(=O)N1CCC[C@H]1C(=O)N[C@@H](CO)C(=O)N[C@@H](CO)C(=O)N[C@H](C(=O)N[C@@H](CC(N)=O)C(=O)N[C@H](C(=O)NCC(=O)N[C@@H](CO)C(=O)N[C@@H](CC(N)=O)C(=O)N[C@H](C(=O)N[C@@H](Cc1ccc(O)cc1)C(N)=O)[C@@H](C)O)C(C)C)[C@@H](C)O, Analogue of human amylin extended by Gly at the N-terminus; disulfide and C-terminal amide as told for h-amylin; also called compound 99)	–	216 nM	79.8	100	2.7 nM

Reference: patent publication US20140087995A1 (published 2014)
